Experimental data published in patent US11202837B2, “Biological materials and uses thereof” (Antikor Biopharma Limited, priority 2014, dated 2021).

Assays:
[1] = Plasma pharmacokinetics in BALB/c mice (ELISA, total antibody and total ADC); type: in vivo, mouse; details: for Elimination half-life (hrs) Total Antibody: plasma ELISA
Protocol: Mice. Female BALB/c mice (BALB/cAnNCrl, Charles River) were eight weeks old with body weights ranging from 15.9 to 21.9 grams at the beginning of the study. The animals were fed ad libitum water (reverse osmosis, 1 ppm Cl) and NIH 31 Modified and Irradiated Lab Diet® consisting of 18.0% crude protein, 5.0% crude fat, and 5.0% crude fiber. The mice were housed on irradiated Enrich-o'cobs™ Laboratory Animal Bedding in static microisolators on a 12-hour light cycle at 20-22° C. (68-72° F.) and at 40-60% humidity. Charles River Discovery Services North Carolina (CR Discovery Services, who carried out this contracted R&D) specifically complies with the recommendations of the Guide for Care and Use of Laboratory Animals with respect to restraint, husbandry, surgical procedures, feed and fluid regulation, and veterinary care. The Animal Care and Use program at CR Discovery Services is accredited by the Association for Assessment and Accreditation of Laboratory Animal Care International, which assures compliance with accepted standards for the care and use of laboratory animals.
Therapeutic (test) Agents. All test agents were supplied as ready-to-dose dosing solutions. All dosing solutions were stored at 4° C. until dosed. All treatments were administered in a dosing volume scaled to the body weights of the individual animals to obtain the dosing concentration described in the treatment tables.
Treatment (mice). On Day 1 of the study, mice were divided into groups each consisting of eighteen mice (per test agent being evaluated), and dosing was initiated according to the treatment plan summarized in the treatment tables. All doses were administered intravenously (i.v.) by tail vein injection as described in the tables below.
Endpoint. The study endpoint occurred after the last sampling point, typically on Day 2 or 4, twenty-four or seventy-two hours post dose.
Sampling (mice). Blood (full blood volume) was collected from three animals per treatment group per timepoint. Samples were collected from all animals via terminal cardiac puncture under isoflurane anesthesia. Once collected, blood samples were collected into collection tubes containing lithium heparin or K2EDTA as anticoagulants and were processed for plasma at each timepoint. Each plasma sample was stored at −80° C. until used for analysis.
Quantification of test agents in plasma. An ELISA was carried out as described in Example 31 The detecting antibodies were (a) Anti-T7 tag to detect the scFv (total antibody), (b) Anti-Human Fab-specific to detect trastuzumab (total antibody), (c) Anti-MMAF (Concortis), Anti-MMAE (Concortis), anti-DM1
(Concortis) and anti-cemadotin (in-house mouse monoclonal antibody, Example 33 that also recognised P5C5 and AuristatinF), total ADC. The reference test agents were used to construct a calibration curve for which the plasma samples were compared to, in order to quantify the amount present. The concentration was plotted against time (average of three animals with standard error) and fitted to a 2-phase decay curve using GraphPad Prism to derive kinetic parameters.

[2] = Concentration reached and storage stability of purified conjugates in buffer; type: physicochemical; details: Storage buffer 20 mM Sodium Acetate pH5, 150 mM NaCl
HER2 = HER2 (Homo sapiens, UniProt P04626); experiment: Biacore SPR binding to immobilised HER2; details: immobilised HER2
How it was run: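 HER2 amine-coupled on CM5 or CM3 chips, Biacore T200. Free antibody (typically 5-0.6 μg/ml) and conjugates (20-2.5 μg/ml) injected 160 s at 30 μl/min, 900 s dissociation (3600 s at highest concentration); regeneration with 8M MgCl2. Kinetics compared with unmodified scFv.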

[3] = Blood clearance of 125-I radiolabelled scFv/conjugates in mice; type: in vivo, mouse; details: total protein level by 125-I labelling, 10 μg i.v., BALB/c mice
Protocol: An scFv, optimised for lysine conjugation was prepared as described in Example 27 or 28 and conjugated (as described in Example 31) to an NHS-derived Cemadotin drug (compound 2). The average DAR was 5 for scFv-TCT-Cem-1 and 4 for scFv-TCT-Cem-2 as determined by SDS-PAGE and IEF gels. This was radiolabelled with Iodine-125 using sodium-125-Iodide (MP Biologicals) and Iodogen™ tubes (Thermo) according to the manufacturer's instructions.
Ten micrograms of radiolabelled scFv or conjugate were injected intravenously into the tail vein of a group of 4 BALB/c female mice (Harlan UK) per time point. At each time point, blood was collected by cardiac puncture under terminal anaesthesia from 4 mice and the spleens were removed by dissection. The radioactivity from the blood and spleen tissues was measured using a gamma counter and compared to the injected dose, correcting for tissue weight. The percentage-injected dose per gram of tissue was plotted over time and pharmacokinetic parameters determined by fitting to a bi-exponential clearance model. […] This is described by the exponential decay, double, four-parameter equation y=ae^−bx+ce^−dx, where the distribution phase clearance rate (t1/2 alpha) can be determined by In 2/b, and the elimination clearance rate (t1/2 beta) can be determined by In 2/d.

[4] = Blood clearance in mice by direct ADC/scFv detection ELISA; type: in vivo, mouse; details: BALB/c mice
Protocol: An anti-Cemadotin MAb was raised (Example 33) and used to follow the ADC in mouse blood, to determine the pharmacokinetic properties. Normal BALB/c mice, 6-8 weeks old were maintained in filtered cages until used. A single batch of material (scFv-TCT, scFv (TCT)-Cemadotin, DAR=5 or 8) were prepared as above (Example 31) and 0.1 mg was injected into groups of 20 mice that were sacrificed at 4 time points (5 mice analysed per time point). Around 0.5 ml of whole blood was removed by cardiac puncture into EDTA-tubes and the serum collected by centrifugation. The serum was diluted appropriately into PBS and analysed by ELISA on HER2 coated micro-titre plates (Example 11D), detecting either by anti-T7 Tag (total antibody) or anti-cemadotin (total ADC). Non-injected reference samples were used to create a calibration curve for a direct read-out of ADC/ScFv blood concentration.

[5] = 0.1 mg injected, serum, anti-T7 tag detection

B1: scFv (TCT): anti-HER2 scFv: Tev cleavage site, C6.5, T7 tag; SEQ ID NO: 2 (protein)
scFv: SGSGGSGQVQLVQSGAEVKKPGESLKISCKGSGYSFTSYWIAWVRQMPGKGLEYMGLIYPGDSDTKYSPSFQGQVTISVDKSVSTAYLQWSSLKPSDSAVYFCARHDVGYCSSSNCAAWPEYFQHWGQGTLVTVSSGGGGSGGGGSGGGGSQSVLTQPPSVSAAPGQKVTISCSGSSSNIGNNYVSWYQQLPGTAPKLLIYGHTNRPAGVPDRFSGSKSGTSASLAISGFRSEDEADYYCAAWDDSLSGWVFGGGTKLTVLMASMTGGQQMG
modifications: Amino Acid sequence of cleaved TCT
[1]; mice, 1 × 5 mg/kg, mean AUC in anti-payload and anti-protein detection, Table 59
  Bioavailability (blood exposure, AUC, 24 hrs): 2.91 μghr/ml
[1]; mice, 1 × 5 mg/kg, Table 55
  Elimination half-life (hrs) Total Antibody: 2.78 h
[1]; mice, 1 × 5 mg/kg, Table 59
  Elimination half-life (hrs) Total Antibody: 2.78 h
[1]; single i.v. dose, female BALB/c mice (5 mg/kg MMAF-C5, P5C5; 2 mg/kg AF-C5, DM1)
  plasma clearance (in words): clears rapidly
[2]
  stability after multiple freeze-thaw cycles: stable
HER2
  association rate: 2.8e+06 M⁻¹ s⁻¹
  dissociation rate: 0.00417 s⁻¹
[3]
  t1/2 (alpha): 0.4 h
  t1/2 (beta): 4.3 h
[4]; [5]
  t1/2 (alpha), total antibody measured by anti-HER2 binding: 0.4 h
  t1/2 (beta), total antibody measured by anti-HER2 binding: 5.25 h
[4]; measured directly
  blood clearance (in words): rapid blood clearance
